Our source for the stoichiometry N values is paper PMC5695104.

This assay has as its target recombinant H03-IPSE (Schistosoma haematobium). The assay can be described thus: SDS-PAGE under non-reducing and reducing conditions; 4-20% gradient gel, Coomassie stain and anti-His Western blot; protein purified by IMAC from serum-free culture supernatant; run non-reduced (NR) or reduced (R). In general terms: In western blotting, separated proteins are transferred to a membrane and probed.

For the substance recombinant H03-IPSE (natural protein), the stoichiometry N (commonly the number of molecules, sites or subunits per partner or assembly) stood at 2.
